Measurements taken from patent US20140072613A1, “Compositions and Methods for Treating Cutaneous Scarring” (priority 2012, published 2014).

Experiments:
Experiment in all cases: cell-based or functional assay
BrSK2(h) (human) = target: T1, BrSK2(h) (human) (UniProt Q8IWQ3)
T1 sequence (looked up): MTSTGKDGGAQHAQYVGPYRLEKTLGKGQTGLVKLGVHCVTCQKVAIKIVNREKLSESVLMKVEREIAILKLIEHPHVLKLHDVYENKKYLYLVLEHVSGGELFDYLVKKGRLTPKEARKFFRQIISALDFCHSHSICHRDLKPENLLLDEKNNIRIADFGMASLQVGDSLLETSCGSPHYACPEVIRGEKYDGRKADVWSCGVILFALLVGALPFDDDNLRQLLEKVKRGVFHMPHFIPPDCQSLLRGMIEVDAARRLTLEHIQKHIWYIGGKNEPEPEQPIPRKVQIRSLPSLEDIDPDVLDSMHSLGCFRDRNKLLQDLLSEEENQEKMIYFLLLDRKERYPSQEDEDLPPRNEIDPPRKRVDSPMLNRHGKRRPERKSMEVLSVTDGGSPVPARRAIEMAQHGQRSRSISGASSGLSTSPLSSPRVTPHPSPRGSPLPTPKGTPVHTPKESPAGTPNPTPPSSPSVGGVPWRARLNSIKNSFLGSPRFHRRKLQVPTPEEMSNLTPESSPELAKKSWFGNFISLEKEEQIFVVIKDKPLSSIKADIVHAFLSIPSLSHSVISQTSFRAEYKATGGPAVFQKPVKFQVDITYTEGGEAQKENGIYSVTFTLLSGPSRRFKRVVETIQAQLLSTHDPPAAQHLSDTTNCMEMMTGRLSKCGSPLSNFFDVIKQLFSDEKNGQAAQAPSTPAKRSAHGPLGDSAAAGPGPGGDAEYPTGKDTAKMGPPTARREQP

CHK1(h) (human) = target: T2, CHK1(h) (human) (UniProt O14757)
T2 sequence (looked up): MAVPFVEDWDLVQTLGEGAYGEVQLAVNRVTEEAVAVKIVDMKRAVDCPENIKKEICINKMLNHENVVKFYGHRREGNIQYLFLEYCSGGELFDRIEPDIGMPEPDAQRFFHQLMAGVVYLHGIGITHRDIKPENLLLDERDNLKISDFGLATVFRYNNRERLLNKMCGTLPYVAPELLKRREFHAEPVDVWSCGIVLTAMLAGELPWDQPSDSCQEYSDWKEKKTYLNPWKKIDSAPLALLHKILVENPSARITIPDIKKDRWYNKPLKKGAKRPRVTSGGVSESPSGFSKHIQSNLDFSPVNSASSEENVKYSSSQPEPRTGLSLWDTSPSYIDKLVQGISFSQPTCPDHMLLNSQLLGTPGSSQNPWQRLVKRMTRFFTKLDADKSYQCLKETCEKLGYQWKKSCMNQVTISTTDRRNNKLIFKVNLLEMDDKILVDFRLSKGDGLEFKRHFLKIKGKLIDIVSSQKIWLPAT

Flt3(h) (human) = target: T3, Flt3(h) (human) (UniProt P36888)
T3 sequence (looked up): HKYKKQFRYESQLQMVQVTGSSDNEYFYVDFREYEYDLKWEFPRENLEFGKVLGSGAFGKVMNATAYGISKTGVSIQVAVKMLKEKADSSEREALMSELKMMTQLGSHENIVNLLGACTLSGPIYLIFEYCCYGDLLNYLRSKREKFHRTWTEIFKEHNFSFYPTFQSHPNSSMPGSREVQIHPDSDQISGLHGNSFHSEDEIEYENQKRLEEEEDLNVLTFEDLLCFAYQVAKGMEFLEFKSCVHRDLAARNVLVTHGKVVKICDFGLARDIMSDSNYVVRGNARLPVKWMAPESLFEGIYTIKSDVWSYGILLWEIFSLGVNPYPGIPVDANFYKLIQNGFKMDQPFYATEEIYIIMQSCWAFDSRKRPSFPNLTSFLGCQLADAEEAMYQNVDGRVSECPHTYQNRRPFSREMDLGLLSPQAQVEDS

IKKα(h) (human) = target: T4, IKKα(h) (human) (UniProt O15111)
T4 sequence (looked up): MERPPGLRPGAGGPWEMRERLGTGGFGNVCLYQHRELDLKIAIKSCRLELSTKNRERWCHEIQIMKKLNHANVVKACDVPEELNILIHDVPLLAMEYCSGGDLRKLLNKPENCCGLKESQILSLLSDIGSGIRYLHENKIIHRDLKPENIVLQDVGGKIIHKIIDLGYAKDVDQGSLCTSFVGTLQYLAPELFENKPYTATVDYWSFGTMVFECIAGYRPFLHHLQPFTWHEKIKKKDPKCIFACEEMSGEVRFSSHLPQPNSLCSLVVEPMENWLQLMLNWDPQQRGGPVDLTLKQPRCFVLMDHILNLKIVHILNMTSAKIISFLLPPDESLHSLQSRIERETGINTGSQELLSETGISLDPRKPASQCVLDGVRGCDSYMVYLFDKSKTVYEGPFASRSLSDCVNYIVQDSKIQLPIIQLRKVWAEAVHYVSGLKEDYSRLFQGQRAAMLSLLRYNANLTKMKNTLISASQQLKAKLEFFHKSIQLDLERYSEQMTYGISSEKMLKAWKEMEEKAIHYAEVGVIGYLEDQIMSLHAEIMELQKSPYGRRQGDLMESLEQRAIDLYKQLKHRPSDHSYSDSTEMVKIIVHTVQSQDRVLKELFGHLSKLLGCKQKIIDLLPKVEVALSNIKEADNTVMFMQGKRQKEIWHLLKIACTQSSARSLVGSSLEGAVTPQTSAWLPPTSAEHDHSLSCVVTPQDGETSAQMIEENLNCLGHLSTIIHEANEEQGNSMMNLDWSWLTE

Met(D1246H)(h) (human) = Met(D1246H)(h) (human) (UniProt P08581)
Mnk2(h) (human) = Mnk2(h) (human) (UniProt Q9HBH9)
Mnk2(h) (human), sequence (Q9HBH9 whole entry): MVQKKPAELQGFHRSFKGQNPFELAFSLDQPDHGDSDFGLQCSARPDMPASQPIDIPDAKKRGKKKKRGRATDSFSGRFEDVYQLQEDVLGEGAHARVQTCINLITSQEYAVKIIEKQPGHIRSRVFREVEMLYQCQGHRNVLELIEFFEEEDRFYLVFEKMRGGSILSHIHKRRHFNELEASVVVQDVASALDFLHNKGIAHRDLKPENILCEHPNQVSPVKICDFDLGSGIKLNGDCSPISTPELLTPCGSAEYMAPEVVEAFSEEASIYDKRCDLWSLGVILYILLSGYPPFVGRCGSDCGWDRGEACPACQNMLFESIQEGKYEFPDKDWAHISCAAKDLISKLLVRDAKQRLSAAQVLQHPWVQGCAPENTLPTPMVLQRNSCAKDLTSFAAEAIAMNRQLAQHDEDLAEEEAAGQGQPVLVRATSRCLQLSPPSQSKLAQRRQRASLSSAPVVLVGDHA

PKCι(h) (human) = PKCι(h) (human) (UniProt P41743)
PKCι(h) (human), sequence (P41743 whole entry): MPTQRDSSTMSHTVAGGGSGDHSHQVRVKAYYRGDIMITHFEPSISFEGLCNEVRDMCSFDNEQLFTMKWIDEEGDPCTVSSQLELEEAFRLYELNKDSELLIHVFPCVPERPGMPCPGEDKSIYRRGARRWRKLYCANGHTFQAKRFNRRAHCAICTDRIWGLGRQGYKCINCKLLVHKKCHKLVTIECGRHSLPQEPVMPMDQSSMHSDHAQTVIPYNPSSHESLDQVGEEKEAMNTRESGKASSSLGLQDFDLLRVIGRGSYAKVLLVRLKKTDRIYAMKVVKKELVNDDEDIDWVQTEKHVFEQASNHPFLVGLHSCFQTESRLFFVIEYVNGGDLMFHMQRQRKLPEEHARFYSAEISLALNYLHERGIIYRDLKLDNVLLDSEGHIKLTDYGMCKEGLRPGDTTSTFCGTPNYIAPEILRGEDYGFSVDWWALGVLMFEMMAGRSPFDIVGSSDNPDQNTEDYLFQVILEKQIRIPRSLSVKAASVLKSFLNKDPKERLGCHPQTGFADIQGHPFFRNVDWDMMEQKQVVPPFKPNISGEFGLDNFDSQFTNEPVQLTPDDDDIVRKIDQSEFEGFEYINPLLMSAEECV

PRAK(h) (human) = PRAK(h) (human) (UniProt Q8IW41)
PRAK(h) (human), sequence (Q8IW41 whole entry): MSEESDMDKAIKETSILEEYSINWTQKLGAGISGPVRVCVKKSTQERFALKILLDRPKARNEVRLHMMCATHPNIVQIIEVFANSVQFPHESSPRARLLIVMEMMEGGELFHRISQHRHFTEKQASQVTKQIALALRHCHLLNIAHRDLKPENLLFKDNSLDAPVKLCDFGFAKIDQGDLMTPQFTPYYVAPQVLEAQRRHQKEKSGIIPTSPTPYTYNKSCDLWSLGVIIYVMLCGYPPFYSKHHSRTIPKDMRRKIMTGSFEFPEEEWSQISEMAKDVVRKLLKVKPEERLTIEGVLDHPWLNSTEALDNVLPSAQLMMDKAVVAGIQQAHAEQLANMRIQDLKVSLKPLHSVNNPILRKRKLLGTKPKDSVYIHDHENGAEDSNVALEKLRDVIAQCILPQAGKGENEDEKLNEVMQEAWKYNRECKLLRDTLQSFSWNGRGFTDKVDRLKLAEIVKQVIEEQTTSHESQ

SGK2(h) (human) = target: T5, SGK2(h) (human) (UniProt Q9HBY8)
T5 sequence (looked up): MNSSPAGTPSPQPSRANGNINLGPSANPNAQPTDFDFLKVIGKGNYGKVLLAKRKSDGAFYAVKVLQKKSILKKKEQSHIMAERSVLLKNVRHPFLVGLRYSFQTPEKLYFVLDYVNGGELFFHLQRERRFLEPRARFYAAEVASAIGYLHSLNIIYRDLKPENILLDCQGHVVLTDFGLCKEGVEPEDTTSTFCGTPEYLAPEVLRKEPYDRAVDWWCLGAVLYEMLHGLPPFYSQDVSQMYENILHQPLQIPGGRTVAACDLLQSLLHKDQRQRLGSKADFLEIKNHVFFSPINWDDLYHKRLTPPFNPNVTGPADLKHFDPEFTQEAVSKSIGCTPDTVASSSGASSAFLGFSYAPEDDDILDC

Tie2(Y897S)(h) (human) = Tie2(Y897S)(h) (human) (UniProt Q02763)
Tie2(Y897S)(h) (human), sequence (Q02763 771-1124 Y897S limits assumed): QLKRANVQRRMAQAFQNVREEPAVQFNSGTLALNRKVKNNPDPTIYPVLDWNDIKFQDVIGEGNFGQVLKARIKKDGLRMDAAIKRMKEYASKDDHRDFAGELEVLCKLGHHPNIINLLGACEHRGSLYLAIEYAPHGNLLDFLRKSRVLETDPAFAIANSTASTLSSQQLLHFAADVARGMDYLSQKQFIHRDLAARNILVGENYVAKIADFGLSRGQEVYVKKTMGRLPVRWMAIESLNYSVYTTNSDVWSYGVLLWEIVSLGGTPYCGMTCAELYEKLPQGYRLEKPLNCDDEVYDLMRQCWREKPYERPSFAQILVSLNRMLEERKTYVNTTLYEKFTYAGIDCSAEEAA

% activity, 100 µM (BrSK2(h) (human)): 84%
% activity, 100 µM (CHK1(h) (human)): 65%
% activity, 100 µM (Flt3(h) (human)): 17%
% activity, 100 µM (IKKα(h) (human)): 50%
% activity, 100 µM (Met(D1246H)(h) (human)): 150%
% activity, 100 µM (Mnk2(h) (human)): 6%
% activity, 100 µM (PKCι(h) (human)): 7%
% activity, 100 µM (PRAK(h) (human)): 95%
% activity, 100 µM (SGK2(h) (human)): -1%
% activity, 100 µM (Tie2(Y897S)(h) (human)): 80%
Substance: MMI-0500 (peptide)
